According to the supplement of paper PMC10724198:
± gives the standard deviation of the averaged measurements.
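Further: PSI is a weighted mean of sequencing reads over stability bins, variants kept only with over 10 reads, mCherry proximal and sfGFP distal, peptide attached via GGGS linker.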

The sequences below were run on Saccharomyces cerevisiae (assay: protein stability index of tFT-peptide fusion (C-terminal peptide) (PSI (0-1 scale)); higher = more stable (slower turnover)). Conditions: genetic background: wild type; temperature: 30 C.
PPPTPACPPATL was tested, and the protein stability index was 0.693 ± 0.039. With PPPTPPPPRPLL the protein stability index was 0.747 ± 0.048. PPPTPSGPHPAP gave a protein stability index of 0.672 ± 0.028. With PPPTRPPPPPSL the protein stability index was 0.704 ± 0.075. PPPVDLPTRLIP was tested, and the protein stability index was 0.642 ± 0.0073. For PPPYHLTPPPPF, the protein stability index was 0.662 ± 0.052. Work on PPQLHVALPHPE yielded a protein stability index of 0.852 ± 0.2. PPQRNFPARPTP showed a protein stability index of 0.6988 ± 0.0034. PPRARPRLPPGA gave a protein stability index of 0.606 ± 0.04. PPRHTPTNPPKA showed a protein stability index of 0.677 ± 0.05. In the case of PPRLPPLPPSYP, the protein stability index is reported as 0.777 ± 0.14. PPRPPLPPTLPP showed a protein stability index of 0.6973 ± 0.0026. For PPRPPPSPPLPS, the protein stability index was 0.663 ± 0.054. PPRPPRPSPPPP showed a protein stability index of 0.72293 ± 8.1e-05. PPRPRPPLPALP showed a protein stability index of 0.764 ± 0.11. Work on PPRPRPPPSPYH yielded a protein stability index of 0.667 ± 0.011. PPRPVPRPHPRP showed a protein stability index of 0.674 ± 0.011. PPRQSHHPNPQH gave a protein stability index of 0.682 ± 0.038. PPRRPPLAPPPP gave a protein stability index of 0.693 ± 0.019. Work on PPRSSLNPDLTQ yielded a protein stability index of 0.695 ± 0.1. For PPRYDSLFGALF, the protein stability index was 0.676 ± 0.066. Work on PPSAPPSPPHPP yielded a protein stability index of 0.612 ± 0.011. Sequence PPSFLHPTPRPR has a protein stability index of 0.673 ± 0.082. Work on PPSLLPAPQLPP yielded a protein stability index of 0.757 ± 0.066. PPSLLPSPPRLF was tested, and the protein stability index was 0.667 ± 0.057. With PPSLPHLCRLHL the protein stability index was 0.668 ± 0.057. PPSLPLPLPSAP was tested, and the protein stability index was 0.683 ± 0.015. For PPSLVSPSSPPS, the protein stability index was 0.708 ± 0.047. Sequence PPSPLAPPCSPR has a protein stability index of 0.6719 ± 0.0056. Sequence PPSPLSRYSPRL has a protein stability index of 0.754 ± 0.0043. For PPSPPAPSPTPP, the protein stability index was 0.721 ± 0.038. Sequence PPSPPDPLLCSP has a protein stability index of 0.7017 ± 0.0043. For PPSPPPPRPPSS, the protein stability index was 0.704 ± 0.055. Sequence PPSPPSHTPPPS has a protein stability index of 0.695 ± 0.051. In the case of PPSPRFFPSFPP, the protein stability index is reported as 0.729 ± 0.021. For PPSPRNSDPPPL, the protein stability index was 0.654 ± 0.071. PPSPRPALPLSL was tested, and the protein stability index was 0.762 ± 0.039. PPSPRPPPSPPP gave a protein stability index of 0.7 ± 0.039. PPSPSLLPPLPP gave a protein stability index of 0.684 ± 0.041. With PPSPSPHPPPSH the protein stability index was 0.842 ± 0.15. With PPSPSPLPHSSP the protein stability index was 0.676 ± 0.058. PPSQLWNSPSPC gave a protein stability index of 0.767 ± 0.064. With PPSRFPAPPSCA the protein stability index was 0.705 ± 0.059. In the case of PPSSPLRRRTTS, the protein stability index is reported as 0.725 ± 0.078. In the case of PPSSPPPASHRP, the protein stability index is reported as 0.691 ± 0.046. With PPSTPPRPDSPP the protein stability index was 0.578 ± 0.084. For PPTANLAHSSHP, the protein stability index was 0.693 ± 0.014. PPTHHRALRPSA was tested, and the protein stability index was 0.687 ± 0.026. Sequence PPTLPPPSPLIL has a protein stability index of 0.775 ± 0.11. For PPTPMRAQRHPR, the protein stability index was 0.579 ± 0.01. For PPTPPLVPPTRH, the protein stability index was 0.739 ± 0.016. With PPTPPPLRPSFS the protein stability index was 0.704 ± 0.023. PPTPPPPSGLPP was tested, and the protein stability index was 0.678 ± 0.05. For PPTPPPRPLQLP, the protein stability index was 0.652 ± 0.0076. Work on PPTRPFHLFDHL yielded a protein stability index of 0.716 ± 0.029. PPVLAVRTSLDA showed a protein stability index of 0.636 ± 0.021. PPVSPPPSRHPL showed a protein stability index of 0.719 ± 0.04. Work on PPYPCRRPPPPP yielded a protein stability index of 0.647 ± 0.033. PPYPRRWAPLGP was tested, and the protein stability index was 0.6872 ± 0.0051. PPYSLLFHPFPF gave a protein stability index of 0.699 ± 0.018. PQPHLLRPPPHS showed a protein stability index of 0.674 ± 0.018. Work on PQVSYYLLPPSS yielded a protein stability index of 0.711 ± 0.11. With PQWVSIGSACCQ the protein stability index was 0.754 ± 0.076. PQYGTNQGRWTG was tested, and the protein stability index was 0.705 ± 0.055. PRALCPSSPPSR showed a protein stability index of 0.764 ± 0.12. PRAPRLQAPGPG was tested, and the protein stability index was 0.75233 ± 0.00055. PRCPVNTHPLAR was tested, and the protein stability index was 0.702 ± 0.013. Sequence PRGVLSCPVFAP has a protein stability index of 0.776 ± 0.029. PRGYCGLGRPAR gave a protein stability index of 0.6305 ± 0.0013. For PRIFPDPVFPSL, the protein stability index was 0.688 ± 0.046. For PRKISSFESSLT, the protein stability index was 0.629 ± 0.086. With PRLFPSSPLPFN the protein stability index was 0.822 ± 0.018. With PRLLSLKLSALS the protein stability index was 0.629 ± 0.063. Sequence PRLPPLRPPPSP has a protein stability index of 0.7079 ± 0.0064. Sequence PRLPPPSPPPLP has a protein stability index of 0.735 ± 0.01. With PRLPTSPVPHPP the protein stability index was 0.6473 ± 0.0033. Sequence PRLSGLFLAPPS has a protein stability index of 0.707 ± 0.037. PRLSTYPDSPGS was tested, and the protein stability index was 0.71038 ± 0.00066. Work on PRLVALFEKNPD yielded a protein stability index of 0.6615 ± 0.0012. PRPCPASSPRPP was tested, and the protein stability index was 0.627 ± 0.083. PRPLLFPLIFTP gave a protein stability index of 0.627 ± 0.026. In the case of PRPLTPDPPRPL, the protein stability index is reported as 0.693 ± 0.062. In the case of PRPPARPPLRLL, the protein stability index is reported as 0.719 ± 0.017. For PRPPPPARSPPS, the protein stability index was 0.66 ± 0.06. In the case of PRPPPPCPPPSL, the protein stability index is reported as 0.71 ± 0.083. For PRPPPSQATLSP, the protein stability index was 0.637 ± 0.052. Work on PRPPRAPPPLPS yielded a protein stability index of 0.643 ± 0.1. With PRPPSPAPPPHP the protein stability index was 0.69904 ± 0.00044. For PRPPSPRAPPPH, the protein stability index was 0.631 ± 0.067. PRPRRFPPPLLA gave a protein stability index of 0.5103 ± 0.0049. Work on PRPVRPSPHPPP yielded a protein stability index of 0.689 ± 0.1. PRRPPPSPPVPP showed a protein stability index of 0.532 ± 0.03. For PRRQCIRAPCAR, the protein stability index was 0.641 ± 0.018. With PRSLPSFHPPFH the protein stability index was 0.658 ± 0.074. In the case of PRSPHPLPPTPP, the protein stability index is reported as 0.666 ± 0.0084. With PRSPPPPPSYSP the protein stability index was 0.703 ± 0.13. With PRSSLPPPPSLP the protein stability index was 0.686 ± 0.038. With PRTLTPVCPAPH the protein stability index was 0.702 ± 0.015. Work on PSALSEQQANGF yielded a protein stability index of 0.6838 ± 0.0022. PSAPPTPLAPSH gave a protein stability index of 0.678 ± 0.028. With PSASPPPPARQP the protein stability index was 0.672 ± 0.057. Work on PSASRILSPPLP yielded a protein stability index of 0.649 ± 0.016. PSCCPPATLPPP gave a protein stability index of 0.687 ± 0.056. Work on PSCFFPFPPRPL yielded a protein stability index of 0.727 ± 0.04. Work on PSDTSHPAWRAN yielded a protein stability index of 0.708 ± 0.025. In the case of PSFPLLPPPSLS, the protein stability index is reported as 0.6913 ± 0.0051. PSFPPLPLSTPP gave a protein stability index of 0.762 ± 0.063. PSFPRSPHTAPH showed a protein stability index of 0.746 ± 0.022. Sequence PSFPSLLPPPPT has a protein stability index of 0.703 ± 0.025. PSGGRGSRWWGV was tested, and the protein stability index was 0.7348 ± 0.006. Work on PSGGSQSLGRLG yielded a protein stability index of 0.634 ± 0.034. For PSGPSTVLPSPL, the protein stability index was 0.6866 ± 0.0065. For PSGSVLAEGRGP, the protein stability index was 0.678 ± 0.077. PSHPPPPSPTPP was tested, and the protein stability index was 0.754 ± 0.024. PSHTPLPPSSLS was tested, and the protein stability index was 0.763 ± 0.089. In the case of PSISSTSPLPRP, the protein stability index is reported as 0.633 ± 0.039. Work on PSLLPPRVCRPS yielded a protein stability index of 0.68 ± 0.089. With PSLPHLPSTSSC the protein stability index was 0.681 ± 0.023. For PSLPLPPPPAHP, the protein stability index was 0.65 ± 0.02. PSLPPRPQLVHS gave a protein stability index of 0.596 ± 0.017. For PSLRLPVSVPTL, the protein stability index was 0.717 ± 0.018. Work on PSNNHRPPGCAD yielded a protein stability index of 0.685 ± 0.023. PSPAAPSPPCLP was tested, and the protein stability index was 0.64 ± 0.045. Work on PSPAHLPPRSPL yielded a protein stability index of 0.714 ± 0.2. With PSPAPFPSSPSL the protein stability index was 0.687 ± 0.0073. Sequence PSPAPLASPPRA has a protein stability index of 0.693 ± 0.042. PSPAPPSPPSPP gave a protein stability index of 0.679 ± 0.028. PSPASPTPPLVQ was tested, and the protein stability index was 0.682 ± 0.067. PSPATCGSSFSK was tested, and the protein stability index was 0.734 ± 0.056. Work on PSPATCLCSPLP yielded a protein stability index of 0.7057 ± 0.0019. In the case of PSPFFSRPSYLS, the protein stability index is reported as 0.718 ± 0.026. For PSPHHHYTPPST, the protein stability index was 0.681 ± 0.0073. For PSPHLHPPPLPP, the protein stability index was 0.641 ± 0.0047. For PSPLPLSPLPFS, the protein stability index was 0.687 ± 0.04. For PSPLRPSPAVPS, the protein stability index was 0.716 ± 0.064. Work on PSPLRRSTPPCL yielded a protein stability index of 0.709 ± 0.13. For PSPPAPPRGLLP, the protein stability index was 0.704 ± 0.03. Sequence PSPPDTDTPIPL has a protein stability index of 0.691 ± 0.034. PSPPHPPPPSPY was tested, and the protein stability index was 0.753 ± 0.097. PSPPLPRPLSPP was tested, and the protein stability index was 0.72 ± 0.045. PSPPPLGPLPAL showed a protein stability index of 0.667 ± 0.037. PSPPPLPPLPPP showed a protein stability index of 0.764 ± 0.12. With PSPPPSSAPYPS the protein stability index was 0.609 ± 0.077. With PSPPRAPSTPLI the protein stability index was 0.744 ± 0.06. PSPPSAKLRRTP gave a protein stability index of 0.72 ± 0.057. In the case of PSPPSPPPAPPP, the protein stability index is reported as 0.643 ± 0.1. With PSPQPTRPPGPL the protein stability index was 0.704 ± 0.039. For PSPSLPSACARP, the protein stability index was 0.701 ± 0.012. With PSPTPLPSPRLP the protein stability index was 0.676 ± 0.098. Work on PSPTRPPAYPRS yielded a protein stability index of 0.672 ± 0.11. For PSPTTSRFAPPP, the protein stability index was 0.53 ± 0.047. For PSRAPQGRADNT, the protein stability index was 0.69 ± 0.11. Sequence PSRGPGRVAPCD has a protein stability index of 0.641 ± 0.013. For PSRKFYSRHFPP, the protein stability index was 0.671 ± 0.028. PSRSPPPLPAPH showed a protein stability index of 0.69 ± 0.011. In the case of PSRVRPLRLVLP, the protein stability index is reported as 0.614 ± 0.033. PSSLATFLPWPI gave a protein stability index of 0.739 ± 0.039. PSSPLLGPPPPD showed a protein stability index of 0.677 ± 0.01. PSSSVICLLPPA was tested, and the protein stability index was 0.636 ± 0.04. In the case of PSSVRPFDPLLC, the protein stability index is reported as 0.724 ± 0.063.
